Reference: patent US8642284B1, “Methods for identifying agents that alter NAD-dependent deacetylation activity of a SIR2 protein” (Massachusetts Institute of Technology, priority 1999, dated 2014)

B1: F265A: recombinant mSir2α core domain mutant, residue changed to alanine (protein)
chain: MADEVALALQAAGSPSAAAAMEAASQPADEPLRKRPRRDGPGLGRSPGEPSAAVAPAAAGCEAASAAAPAALWREAAGAAASAEREAPATAVAGDGDNGSGLRREPRAADDFDDDEGEEEDEAAAAAAAAAIGYRDNLLLTDGLLTNGFHSCESDDDDRTSHASSSDWTPRPRIGPYTFVQQHLMIGTDPRTILKDLLPETIPPPELDDMTLWQIVINILSEPPKRKKRKDINTIEDAVKLLQECKKIIVLTGAGVSVSCGIPDARSRDGIYARLAVDFPDLPDPQAMFDIEYFRKDPRPFFKFAKEIYPGQFQPSLCHKFIALSDKEGKLLRNYTQNIDTLEQVAGIQRILQCHGSFATASCLICKYKVDCEAVRGDIFNQVVPRCPRCPADEPLAIMKPEIVFFGENLPEQFHRAMKYDKDEVDLLIVIGSSLKVRPVALIPSSIPHEVPQILINREPLPHLHFDVELLGDCDVIINELCHRLGGEYAKLCCNPVKLSEITEKPPRPQKELVHLSELPPTPLHISEDSSSPERTVPQDSSVIATLVDQATNNNVNDLEVSESSCVEEKPQEVQTSRNVENINVENPDFKAVGSSTADKNERTSVAETVRKCWPNRLAKEQISKRLEGNQYLFVPPNRYIFHGAEVYSDSEDDVLSSSSCGSNSDSGTCQSPSLEEPLEDESEIEEFYNGLEDDTERPECAGGSGFGADGGDQEVVNEAIATRQELTDVNYPSDKS
modifications: left off: small tags and cut ends
notes: recombinant mSir2α core domain mutant, residue changed to alanine
B2: G270A: recombinant mSir2α core domain mutant, residue changed to alanine (protein)
chain: MADEVALALQAAGSPSAAAAMEAASQPADEPLRKRPRRDGPGLGRSPGEPSAAVAPAAAGCEAASAAAPAALWREAAGAAASAEREAPATAVAGDGDNGSGLRREPRAADDFDDDEGEEEDEAAAAAAAAAIGYRDNLLLTDGLLTNGFHSCESDDDDRTSHASSSDWTPRPRIGPYTFVQQHLMIGTDPRTILKDLLPETIPPPELDDMTLWQIVINILSEPPKRKKRKDINTIEDAVKLLQECKKIIVLTGAGVSVSCGIPDFRSRDAIYARLAVDFPDLPDPQAMFDIEYFRKDPRPFFKFAKEIYPGQFQPSLCHKFIALSDKEGKLLRNYTQNIDTLEQVAGIQRILQCHGSFATASCLICKYKVDCEAVRGDIFNQVVPRCPRCPADEPLAIMKPEIVFFGENLPEQFHRAMKYDKDEVDLLIVIGSSLKVRPVALIPSSIPHEVPQILINREPLPHLHFDVELLGDCDVIINELCHRLGGEYAKLCCNPVKLSEITEKPPRPQKELVHLSELPPTPLHISEDSSSPERTVPQDSSVIATLVDQATNNNVNDLEVSESSCVEEKPQEVQTSRNVENINVENPDFKAVGSSTADKNERTSVAETVRKCWPNRLAKEQISKRLEGNQYLFVPPNRYIFHGAEVYSDSEDDVLSSSSCGSNSDSGTCQSPSLEEPLEDESEIEEFYNGLEDDTERPECAGGSGFGADGGDQEVVNEAIATRQELTDVNYPSDKS
modifications: left off: small tags and cut ends
notes: as for B1
B3: T336A: recombinant mSir2α core domain mutant, residue changed to alanine (protein)
chain: MADEVALALQAAGSPSAAAAMEAASQPADEPLRKRPRRDGPGLGRSPGEPSAAVAPAAAGCEAASAAAPAALWREAAGAAASAEREAPATAVAGDGDNGSGLRREPRAADDFDDDEGEEEDEAAAAAAAAAIGYRDNLLLTDGLLTNGFHSCESDDDDRTSHASSSDWTPRPRIGPYTFVQQHLMIGTDPRTILKDLLPETIPPPELDDMTLWQIVINILSEPPKRKKRKDINTIEDAVKLLQECKKIIVLTGAGVSVSCGIPDFRSRDGIYARLAVDFPDLPDPQAMFDIEYFRKDPRPFFKFAKEIYPGQFQPSLCHKFIALSDKEGKLLRNYAQNIDTLEQVAGIQRILQCHGSFATASCLICKYKVDCEAVRGDIFNQVVPRCPRCPADEPLAIMKPEIVFFGENLPEQFHRAMKYDKDEVDLLIVIGSSLKVRPVALIPSSIPHEVPQILINREPLPHLHFDVELLGDCDVIINELCHRLGGEYAKLCCNPVKLSEITEKPPRPQKELVHLSELPPTPLHISEDSSSPERTVPQDSSVIATLVDQATNNNVNDLEVSESSCVEEKPQEVQTSRNVENINVENPDFKAVGSSTADKNERTSVAETVRKCWPNRLAKEQISKRLEGNQYLFVPPNRYIFHGAEVYSDSEDDVLSSSSCGSNSDSGTCQSPSLEEPLEDESEIEEFYNGLEDDTERPECAGGSGFGADGGDQEVVNEAIATRQELTDVNYPSDKS
modifications: left off: small tags and cut ends
notes: as for B1
B4: R266A: recombinant mSir2α core domain mutant, residue changed to alanine (protein)
chain: MADEVALALQAAGSPSAAAAMEAASQPADEPLRKRPRRDGPGLGRSPGEPSAAVAPAAAGCEAASAAAPAALWREAAGAAASAEREAPATAVAGDGDNGSGLRREPRAADDFDDDEGEEEDEAAAAAAAAAIGYRDNLLLTDGLLTNGFHSCESDDDDRTSHASSSDWTPRPRIGPYTFVQQHLMIGTDPRTILKDLLPETIPPPELDDMTLWQIVINILSEPPKRKKRKDINTIEDAVKLLQECKKIIVLTGAGVSVSCGIPDFASRDGIYARLAVDFPDLPDPQAMFDIEYFRKDPRPFFKFAKEIYPGQFQPSLCHKFIALSDKEGKLLRNYTQNIDTLEQVAGIQRILQCHGSFATASCLICKYKVDCEAVRGDIFNQVVPRCPRCPADEPLAIMKPEIVFFGENLPEQFHRAMKYDKDEVDLLIVIGSSLKVRPVALIPSSIPHEVPQILINREPLPHLHFDVELLGDCDVIINELCHRLGGEYAKLCCNPVKLSEITEKPPRPQKELVHLSELPPTPLHISEDSSSPERTVPQDSSVIATLVDQATNNNVNDLEVSESSCVEEKPQEVQTSRNVENINVENPDFKAVGSSTADKNERTSVAETVRKCWPNRLAKEQISKRLEGNQYLFVPPNRYIFHGAEVYSDSEDDVLSSSSCGSNSDSGTCQSPSLEEPLEDESEIEEFYNGLEDDTERPECAGGSGFGADGGDQEVVNEAIATRQELTDVNYPSDKS
modifications: left off: small tags and cut ends
notes: as for B1
B5: H355A: recombinant mSir2α core domain mutant, residue changed to alanine (protein)
chain: MADEVALALQAAGSPSAAAAMEAASQPADEPLRKRPRRDGPGLGRSPGEPSAAVAPAAAGCEAASAAAPAALWREAAGAAASAEREAPATAVAGDGDNGSGLRREPRAADDFDDDEGEEEDEAAAAAAAAAIGYRDNLLLTDGLLTNGFHSCESDDDDRTSHASSSDWTPRPRIGPYTFVQQHLMIGTDPRTILKDLLPETIPPPELDDMTLWQIVINILSEPPKRKKRKDINTIEDAVKLLQECKKIIVLTGAGVSVSCGIPDFRSRDGIYARLAVDFPDLPDPQAMFDIEYFRKDPRPFFKFAKEIYPGQFQPSLCHKFIALSDKEGKLLRNYTQNIDTLEQVAGIQRILQCAGSFATASCLICKYKVDCEAVRGDIFNQVVPRCPRCPADEPLAIMKPEIVFFGENLPEQFHRAMKYDKDEVDLLIVIGSSLKVRPVALIPSSIPHEVPQILINREPLPHLHFDVELLGDCDVIINELCHRLGGEYAKLCCNPVKLSEITEKPPRPQKELVHLSELPPTPLHISEDSSSPERTVPQDSSVIATLVDQATNNNVNDLEVSESSCVEEKPQEVQTSRNVENINVENPDFKAVGSSTADKNERTSVAETVRKCWPNRLAKEQISKRLEGNQYLFVPPNRYIFHGAEVYSDSEDDVLSSSSCGSNSDSGTCQSPSLEEPLEDESEIEEFYNGLEDDTERPECAGGSGFGADGGDQEVVNEAIATRQELTDVNYPSDKS
modifications: left off: small tags and cut ends
notes: as for B1

tested on: histone H2B; test: ADP-ribosylation activity of wild type and mutant recombinant mSir2α proteins on histones; type: biochemical, calf; conditions: 10 μg recombinant protein; H2B radioactivity, wild type = 100%
Method: Site-directed mutagenesis of mSIR2α core domain was performed with the GeneEditor™ system (Promega, Madison, Wis.) according to the procedure provided by the manufacturer. The mutant recombinant proteins were prepared in the same way as described above.
The typical reaction was performed in 50 or 100 μl of the buffer containing 5 mM Tris-HCl [pH8.0 or 9.0], 4 mM MgCl2, 0.2 mM DTT, 1 μM cold β-NAD^+ (SIGMA®) and 8 μCi nicotinamide adenine dinucleotide 5′[α-^32P]triphosphate (NAD) as a donor of ADP-ribose (˜1000 Ci/mmol, Amersham Pharmacia Biotech). To check the sensitivity to poly- or mono-ADP-ribosylation inhibitors, 3-aminobenzamide (ICN Pharmaceuticals, CA), benzamide, novobiocin and coumermycin A1 (SIGMA®) were added to the reactions prior to adding Sir2 proteins, respectively. The wild type or mutant recombinant proteins (0.5-1 μg for ySir2p and 10 μg of mSir2α) were added with 4 μg of each histone purchased from Roche Molecular Biochemicals (Indianapolis, Ind.). For the peptide experiments, 5-10 μg of unacetylated or acetylated N-terminal tail peptides (amino acids 1-20) of H3 and H4 purchased from Upstate Biotechnology™ (Lake Placid, N.Y.) were used as substrates of the yeast and mouse Sir2 recombinant proteins.
To analyze histone modification, 25 μl of 100% trichloroacetic acid (TCA) solution was mixed to the reaction mixture and left on ice for 15 min. The protein precipitates were centrifuged at 4° C. and washed with 5 or 20% TCA solution twice. The pellets were dissolved in 15 μl of Leammli's sample buffer and boiled for 1.5 min. The proteins were electrophoresed in a 10-20% gradient SDS-PAGE gel. The gel was stained with COOMASSIE® Brilliant Blue R-250 (GibcoBRL Life Technologies™, Frederick, Md.) to check equal loading of histones, dried, and exposed to KODAK® X-OMAT film.
Aliquots of recombinant protein (10 μg) of the wild type recombinant mSir2α (WT), the pET control pET, and the mutant proteins (G253A, G255A, S257A, I262A, F265A, R266A, G270A, P285A, T336A, H355A) were incubated with H2B or H3. […] All of the mutations of highly conserved residues dramatically affected the mono-ADP-ribosylation activity of mSir2α (FIG. 6B). The results were similar using H2B or H3.
The radioactivity of H2B modified by the wild type is assigned to 100% and other data were normalized according to the wild type activity and blots quantitated by Phosphorimaging. The averages and the standard deviations were calculated from two independent experiments. In the core domain of ySir2p, mutations on highly conserved residues also affected the mono-ADP-ribosylation activity. Therefore, the core domain of Sir2 proteins contain the catalytic activity of mono-ADP-ribosylation and the evolutionarily conserved residues in the core domain are essential for this activity.

Molecule	mono-ADP-ribosylation activity compared to the wild type activity
B1	completely abolished the activity
B2	completely abolished the activity
B3	completely abolished the activity
B4	18%
B5	completely abolished the activity
